{"source": "patent US20200254065A1", "about": "“LONG-ACTING GLP-2 ANALOGS” (OPKO Biologics Ltd., priority 2019, published 2020)", "key": {"[1]": {"molecular_target": "T1, GLP-2 receptor (UniProt O95838 1-553, limits assumed)", "T1 sequence (looked up)": "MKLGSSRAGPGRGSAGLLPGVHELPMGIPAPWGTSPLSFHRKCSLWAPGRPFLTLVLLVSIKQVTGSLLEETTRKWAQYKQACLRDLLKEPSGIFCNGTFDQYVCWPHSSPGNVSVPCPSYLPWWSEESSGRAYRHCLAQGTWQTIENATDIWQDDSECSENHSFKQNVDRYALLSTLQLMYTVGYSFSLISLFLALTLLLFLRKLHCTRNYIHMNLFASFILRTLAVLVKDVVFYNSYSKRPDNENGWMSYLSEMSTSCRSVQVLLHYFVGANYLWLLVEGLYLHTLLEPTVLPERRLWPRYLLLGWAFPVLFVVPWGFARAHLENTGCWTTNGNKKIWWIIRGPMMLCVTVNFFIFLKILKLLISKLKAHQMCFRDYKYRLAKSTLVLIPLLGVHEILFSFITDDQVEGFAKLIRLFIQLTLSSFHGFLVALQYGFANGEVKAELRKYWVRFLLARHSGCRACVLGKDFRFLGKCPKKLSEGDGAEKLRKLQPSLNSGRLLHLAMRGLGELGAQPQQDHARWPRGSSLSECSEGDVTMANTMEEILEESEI", "test": "cell-based or functional assay"}, "[2]": {"molecular_target": "T2, GLP-2 receptor (Homo sapiens, UniProt O95838)", "T2 sequence (O95838 1-553)": "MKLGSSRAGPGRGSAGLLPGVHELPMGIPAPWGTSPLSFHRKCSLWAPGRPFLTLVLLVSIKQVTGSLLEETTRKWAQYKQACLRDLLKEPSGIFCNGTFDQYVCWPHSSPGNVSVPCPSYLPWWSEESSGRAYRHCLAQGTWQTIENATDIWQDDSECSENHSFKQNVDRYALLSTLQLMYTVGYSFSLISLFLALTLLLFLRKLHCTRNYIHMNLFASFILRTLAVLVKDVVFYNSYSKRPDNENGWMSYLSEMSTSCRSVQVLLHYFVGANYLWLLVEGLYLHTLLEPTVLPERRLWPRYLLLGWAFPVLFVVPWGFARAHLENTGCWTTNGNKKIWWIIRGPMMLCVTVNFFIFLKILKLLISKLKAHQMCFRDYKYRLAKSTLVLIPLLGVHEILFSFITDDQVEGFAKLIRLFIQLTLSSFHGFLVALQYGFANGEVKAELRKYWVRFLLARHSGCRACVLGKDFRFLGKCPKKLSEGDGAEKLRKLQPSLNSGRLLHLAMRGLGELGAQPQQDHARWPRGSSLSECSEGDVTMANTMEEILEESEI", "test": "GLP-2 receptor Cell Based Assay (CBA)", "settings": "Table 8; average of 3 independent CBA", "protocol": "Evaluation of in vitro binding affinity of the different peptides was assessed by using Cell Based Assay (CBA) in the presence of escalating doses of the different peptides."}, "[3]": {"test_system": "intestine epithelium (crypts plus villi)", "test": "Crypts plus villi length, histopathology of small intestine", "type": "in vivo, SD rats", "settings": "Study 15203; single SC 2 mg/kg on Day 1; Days 6 and 10", "procedure": "In addition to PEG30-FMS-V4 and PEG30-Fmoc-V4 that have been pharmacology evaluated by small intestinal weight evaluation (As shown in Example 5), four other reversible PEGylated variant 4 (“V4”) conjugates and two reversible linker-V4 conjugates were synthesized. All the above were injected to 6 normal SD rats/group once at 2 mg/kg (peptide dose), while on the 6th day, animals were scarified, and the small intestine was weighted followed by histopathology evaluation. […] Therefore, slices from three areas of the intestine (duodenum, jejunum and ilium) were stained with hematoxylin and eosin and at least 7 Crypts+Villi length/slice were measured. The averaged Villi+Crypt length of each treatment group (n=6) was compared to the vehicle group (negative control) and calculated as percentage increase over vehicle. […]\nAn additional study to evaluate the efficacy and the longevity of V4 and Cys-FMS-V4 was conducted (Study reference 15204) in which the animals were sacrificed on Days 6 (N=6), 10 (N=4) and 14 (N=4). This experiment measured the pharmacological response compared to the commercially approved SBS treatment drug Gattex. In addition, two new conjugates were tested by conjugating V4 to reduced OSu-linker and Cys-FMS-V4 purified from resin. The animals were injected with a single SC injection at Day 1 with 2 mg/kg peptide content of V4, Cys-FMS-V4, FMS-OSu-V4, Apraglutide and Glepaglutide while Gattex was SC injected daily at 2.5 mg/kg peptide content. […]"}, "[4]": {"molecular_target": "GLP-2 receptor (UniProt O95838)", "test": "cell-based or functional assay"}}, "note": "Square brackets hold non-standard residues; d marks the D form. Ends that are not written are not given here. Peptide text beside a SMILES is read from it. Nle = CCCC[C@H](N)C(=O)O", "data": [{"molecule": "GLP2 DiscoverX Kit (peptide)", "values": [{"measurement": "EC50 (nM) Average, GLP2-receptor CBA, 3 independent assays", "setting": "[1]", "result": 0.8, "unit": "nM"}, {"measurement": "EC50 Ratio to Teduglutide, CBA", "setting": "[1]", "result": 1.8, "unit": "fold"}, {"measurement": "EC50 Ratio to Teduglutide, GLP2-receptor CBA", "setting": "[1]", "result": 1.3, "unit": "fold"}, {"measurement": "EC50 Ratio to Variant 4, GLP2-receptor CBA", "setting": "[1]", "result": 0.7, "unit": "fold"}, {"measurement": "EC50 [nM], Cell Based Assay (CBA), cells overexpressing the GLP-2 receptor", "setting": "[1]", "result": 10.1, "unit": "nM"}]}, {"molecule": "CCCC[C@H](NC(=O)[C@H](CCC(=O)O)NC(=O)[C@H](CC(=O)O)NC(=O)[C@H](CO)NC(=O)[C@H](Cc1ccccc1)NC(=O)[C@H](CO)NC(=O)CNC(=O)[C@H](CC(=O)O)NC(=O)CNC(=O)[C@@H](N)Cc1c[nH]cn1)C(=O)N[C@H](Cc1ccccc1)C(=O)N[C@H](C(=O)N[C@H](C(=O)N[C@@H](CC(C)C)C(=O)N[C@@H](CC(=O)O)C(=O)N[C@@H](CC(C)C)C(=O)N[C@@H](CC(C)C)C(=O)N[C@@H](C)C(=O)N[C@@H](C)C(=O)N[C@@H](CCCNC(=N)N)C(=O)N[C@@H](CC(=O)O)C(=O)N[C@@H](Cc1ccccc1)C(=O)N[C@H](C(=O)N[C@@H](CC(N)=O)C(=O)N[C@@H](Cc1c[nH]c2ccccc12)C(=O)N[C@@H](CC(C)C)C(=O)N[C@H](C(=O)N[C@@H](CCC(N)=O)C(=O)N[C@H](C(=O)N[C@@H](CCCCN)C(=O)N[C@H](C(=O)N[C@H](C(=O)N[C@@H](CC(=O)O)C(N)=O)[C@@H](C)O)[C@@H](C)CC)[C@@H](C)O)[C@@H](C)CC)[C@@H](C)CC)[C@@H](C)CC)[C@@H](C)O", "note": "[Variant 1, reference compound] (H-HGDGSFSDE[Nle][dF]TILDLLAARDFINWLIQTKITD-NH2)", "values": [{"measurement": "EC50 Ratio to Teduglutide", "setting": "[2]", "result": 2.9}, {"measurement": "EC50 Ratio to Variant 4", "setting": "[2]", "result": 1.6}, {"measurement": "Crypts plus villi length percent increase over vehicle (FIG. 13)", "setting": "[3]", "result": "moderate effect that was higher than Glepaglutide and the PEG30-FMS-V4 conjugate"}]}, {"molecule": "HGDGSFSDE[Nle][dF]TILDLLAARDFINWLIQTKITD-NH2", "note": "[Apraglutide (V1)]", "values": [{"measurement": "EC50 (nM) Average, GLP2-receptor CBA, 3 independent assays", "setting": "[4]", "result": 1.7, "unit": "nM"}, {"measurement": "EC50 Ratio to Teduglutide, GLP2-receptor CBA", "setting": "[4]", "result": 2.9, "unit": "fold"}, {"measurement": "EC50 Ratio to Variant 4, GLP2-receptor CBA", "setting": "[4]", "result": 1.6, "unit": "fold"}]}, {"molecule": "HGEGTFSSELATILDALAARDFIAWLIATKITDKKKKKK-NH2", "note": "[Glepaglutide (V10)]", "values": [{"measurement": "EC50 (nM) Average, GLP2-receptor CBA, 3 independent assays", "setting": "[4]", "result": 5.4, "unit": "nM"}, {"measurement": "EC50 Ratio to Teduglutide, GLP2-receptor CBA", "setting": "[4]", "result": 9.4, "unit": "fold"}, {"measurement": "EC50 Ratio to Variant 4, GLP2-receptor CBA", "setting": "[4]", "result": 5.3, "unit": "fold"}]}]}
